These sequences were tested on Escherichia coli TOP10 (assay: shrunken log2 fold change of peptide-encoding DNA abundance (4.5 h post-induction vs induction); higher = less antimicrobial activity (less host growth inhibition)). Details: time post-induction: 4.5 h; library: site-saturation at positions 5, 18, 19, 20.
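Further: peptides expressed intracellularly from a pBAD plasmid library in pooled LB shake-flask culture, induced with 0.3% L-arabinose, DNA abundance read by NGS, three biological replicates, DESeq2 with apeglm shrinkage.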

| Sequence | shrunken log2 fold change |
| --- | --- |
| RRIRHRPPRLPRPRPRPCEFPRP | -0.324 |
| RRIRGRPPRLPRPRPRPIDYPRP | -0.0822 |
| RRIRGRPPRLPRPRPRPKRLPRP | 0.217 |
| RRIRARPPRLPRPRPRPEEEPRP | 0.178 |
| RRIRDRPPRLPRPRPRPCHNPRP | -0.184 |
| RRIRQRPPRLPRPRPRPGDLPRP | 0.01 |
| RRIRIRPPRLPRPRPRPEETPRP | -0.00208 |
| RRIRPRPPRLPRPRPRPSDMPRP | -0.273 |
| RRIRCRPPRLPRPRPRPMCQPRP | -0.0371 |
| RRIRHRPPRLPRPRPRPSFKPRP | -0.6 |
| RRIRIRPPRLPRPRPRPKEKPRP | 0.00643 |
| RRIRERPPRLPRPRPRPNDPPRP | -0.488 |
| RRIRARPPRLPRPRPRPTPMPRP | 0.528 |
| RRIRHRPPRLPRPRPRPIWDPRP | -0.00794 |
| RRIRWRPPRLPRPRPRPNVYPRP | -0.234 |
| RRIRQRPPRLPRPRPRPNFDPRP | -0.347 |
| RRIRQRPPRLPRPRPRPGPMPRP | 0.261 |
| RRIRRRPPRLPRPRPRPKGGPRP | 0.183 |
| RRIRSRPPRLPRPRPRPWQQPRP | 0.179 |
| RRIRQRPPRLPRPRPRPPMNPRP | -0.299 |
| RRIRTRPPRLPRPRPRPLNCPRP | -0.405 |

| Sequence | shrunken log2 fold change |
| --- | --- |
| RRIRKRPPRLPRPRPRPKSKPRP | 0.45 |
| RRIRERPPRLPRPRPRPSGMPRP | -0.46 |
| RRIRRRPPRLPRPRPRPQHDPRP | 0.478 |
| RRIRLRPPRLPRPRPRPLHYPRP | -0.00799 |
| RRIRLRPPRLPRPRPRPDGKPRP | -0.0351 |
| RRIRCRPPRLPRPRPRPPYSPRP | -0.798 |
| RRIRGRPPRLPRPRPRPTQWPRP | 0.387 |
| RRIRQRPPRLPRPRPRPSCFPRP | -0.529 |
| RRIRCRPPRLPRPRPRPSSVPRP | -0.548 |
| RRIRLRPPRLPRPRPRPIANPRP | -0.00904 |
| RRIRVRPPRLPRPRPRPNVCPRP | -0.111 |
| RRIRPRPPRLPRPRPRPDFVPRP | -0.107 |
| RRIRLRPPRLPRPRPRPVESPRP | -0.0112 |
| RRIRERPPRLPRPRPRPMWIPRP | -0.102 |
| RRIRWRPPRLPRPRPRPIYQPRP | -0.288 |
| RRIRLRPPRLPRPRPRPDYAPRP | -0.224 |
| RRIRGRPPRLPRPRPRPCVRPRP | 0.079 |
| RRIRDRPPRLPRPRPRPYSEPRP | -0.0337 |
| RRIRNRPPRLPRPRPRPSDPPRP | -0.192 |
| RRIRDRPPRLPRPRPRPLGDPRP | 0.0385 |
| RRIRHRPPRLPRPRPRPTNWPRP | 0.0467 |

| Sequence | shrunken log2 fold change |
| --- | --- |
| RRIRDRPPRLPRPRPRPERGPRP | 0.689 |
| RRIRDRPPRLPRPRPRPPCVPRP | 0.152 |
| RRIRSRPPRLPRPRPRPWHCPRP | -0.403 |
| RRIRIRPPRLPRPRPRPFISPRP | -1.43 |
| RRIRERPPRLPRPRPRPSTFPRP | 2.07 |
| RRIRIRPPRLPRPRPRPTHDPRP | -0.0575 |
| RRIRQRPPRLPRPRPRPNMIPRP | -0.209 |
| RRIRYRPPRLPRPRPRPKNAPRP | -0.186 |
| RRIRNRPPRLPRPRPRPDEVPRP | -0.00973 |
| RRIRWRPPRLPRPRPRPQDKPRP | -0.208 |
| RRIRIRPPRLPRPRPRPNGVPRP | -0.37 |
| RRIRERPPRLPRPRPRPMPCPRP | -0.0207 |
| RRIRSRPPRLPRPRPRPMMSPRP | 0.0638 |
| RRIRSRPPRLPRPRPRPEKEPRP | 0.00748 |
| RRIRDRPPRLPRPRPRPNYRPRP | -0.152 |
| RRIRMRPPRLPRPRPRPNLRPRP | -0.0219 |
| RRIRTRPPRLPRPRPRPYFRPRP | -0.138 |
| RRIRRRPPRLPRPRPRPPYIPRP | 0.141 |
| RRIRGRPPRLPRPRPRPEVIPRP | 0.073 |
| RRIRNRPPRLPRPRPRPGCIPRP | -0.173 |
| RRIRYRPPRLPRPRPRPWRKPRP | -0.296 |
